B1: CPEB3 Ribozyme (parent)
chain: UAACAGGGGGCCACAGCAGAAGCGUUCACGUCGCAGCCCCUGUCAGAUUCUGGUGAAUCUGCGAAUUCUGCUGUAUAUCUC

Variants of: B1
Assay: self-cleavage, relative activity (ratio to wild type); higher = more cleavage; in vitro, sequencing
Summary of the method: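 Barcoded CPEB3 ribozyme mutants, produced by rounds of error-prone PCR, self-cleaved while being transcribed with T7 RNA polymerase for 5 hours at 37°C and during a subsequent 15 min DNase I step before EDTA was added. Sequencing of template-switched cDNA on Illumina gave cleaved and total reads, and DNA sequencing assigned barcodes to variants. Each variant's relative activity is its cleaved/total read fraction divided by the unmutated ribozyme's fraction, averaged across three batches. A variant needed a minimum of 5 reads.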

Variant | self-cleavage
A47G | 1.01
A47G A56C | 0.95
A47G A56G | 0.71
A47G A56U | 0.45
A47G A57C | 0.36
A47G A57G | 0.51
A47G A57U | 0.29
A47G A64G | 0.9
A47G A64U | 0.34
A47G A65G | 0.4
A47G A65U | 0.49
A47G A75C | 0.98
A47G A75G | 0.88
A47G A75U | 1.11
A47G A77G | 1.09
A47G A77U | 1.06
A47G C50A | 0.59
A47G C50U | 0.8
A47G C59A | 0.29
A47G C59G | 0.35
A47G C62A | 0.33
A47G C62U | 0.3
A47G C68A | 0.43
A47G C68U | 0.89

Variant | self-cleavage
A47G C71U | 0.87
A47G C79U | 1.12
A47G C81U | 1.04
A47G G52A | 1.25
A47G G53A | 1.18
A47G G53C | 1.19
A47G G55A | 0.75
A47G G55C | 0.57
A47G G55U | 0.99
A47G G61A | 0.61
A47G G61C | 0.35
A47G G61U | 0.49
A47G G63A | 0.88
A47G G63C | 0.93
A47G G70A | 0.77
A47G G73A | 1.21
A47G G73U | 1.26
A47G U48A | 0.23
A47G U48C | 0.31
A47G U48G | 0.26
A47G U49A | 0.34
A47G U49C | 0.33
A47G U49G | 0.47
A47G U51A | 0.98

Variant | self-cleavage
A47G U51C | 0.94
A47G U51G | 0.79
A47G U54A | 1.08
A47G U54C | 1.01
A47G U58A | 0.57
A47G U58C | 1.1
A47G U58G | 0.29
A47G U60A | 0.41
A47G U60C | 0.37
A47G U60G | 0.41
A47G U66A | 0.45
A47G U66C | 0.35
A47G U66G | 0.27
A47G U67A | 0.49
A47G U67C | 0.35
A47G U67G | 0.34
A47G U69A | 0.6
A47G U69C | 0.57
A47G U69G | 0.68
A47G U72A | 0.64
A47G U72C | 1.12
A47G U72G | 0.35
A47G U74A | 1.21
A47G U74C | 1.13

Variant | self-cleavage
A47G U74G | 1.24
A47G U76A | 0.98
A47G U76C | 1.04
A47G U76G | 1.16
A47G U78A | 1.07
A47G U78C | 0.93
A47G U78G | 0.79
A47G U80A | 1.13
A47G U80C | 1.08
A47U | 0.62
A47U A56G | 0.35
A47U A56U | 0.33
A47U A57G | 0.32
A47U A57U | 0.64
A47U A64G | 0.37
A47U A64U | 0.26
A47U A65G | 0.35
A47U A65U | 0.16
A47U A75G | 0.38
A47U A75U | 1
A47U A77G | 0.37
A47U A77U | 0.71
A47U C50A | 0.23
A47U C59A | 0.17

Variant | self-cleavage
A47U C59U | 0.2
A47U C62U | 0.33
A47U C68A | 0.25
A47U C79U | 0.52
A47U C81A | 1.13
A47U G52A | 0.86
A47U G53U | 1.03
A47U G55U | 0.26
A47U G63A | 0.29
A47U G70A | 0.13
A47U G70U | 0.14
A47U U48C | 0.26
A47U U48G | 0.18
A47U U49A | 0.41
A47U U49C | 0.46
A47U U51A | 0.4
A47U U51C | 0.43
A47U U51G | 0.47
A47U U54A | 0.72
A47U U54C | 0.37
A47U U58C | 0.39
A47U U60A | 0.21
A47U U60C | 0.23
A47U U60G | 0.29

Variant | self-cleavage
A47U U66A | 0.26
A47U U66C | 0.36
A47U U67A | 0.33
A47U U67C | 0.3
A47U U69A | 0.34
A47U U69C | 0.33
A47U U72A | 0.35
A47U U72C | 0.53
A47U U74A | 0.64
A47U U74C | 1.14
A47U U74G | 0.96
A47U U76A | 0.82
A47U U76C | 0.59
A47U U78A | 0.7
A47U U78C | 0.57
A47U U80A | 0.51
A47U U80C | 0.66
A47U U80G | 0.8
U48A | 0.48
U48A A56C | 0.26
U48A A56G | 0.33
U48A A56U | 0.31
U48A A57G | 0.47
U48A A57U | 1.09

Variant | self-cleavage
U48A A64G | 0.26
U48A A64U | 0.14
U48A A65G | 0.4
U48A A65U | 0.15
U48A A75G | 0.32
U48A A75U | 0.61
U48A A77G | 0.54
U48A C50U | 0.35
U48A C59A | 0.44
U48A C62U | 0.43
U48A C71A | 0.2
U48A C79G | 0.73
U48A G55A | 0.21
U48A U49A | 0.38
U48A U49C | 0.3
U48A U49G | 0.21
U48A U51C | 0.44
U48A U54A | 0.43
U48A U54C | 0.39
U48A U58A | 0.5
U48A U58C | 0.29
U48A U58G | 0.18
U48A U60A | 0.31
